In patent US20220298244A1 (BEIJING MABWORKS BIOTECH, published 2022):
Numbering of substitutions follows the chain as printed. Numbers in names are those of the source.

B1: 3C2VH3VL3 (antibody, human IgG1, kappa, N297A, V domains shown)
VH: QVQLVQSGAEVKKPGASVKVSCKASGYTFTDYHVNWVKQRPGQGLEWIGWIFPGSGRTFYTDKFKGRVTLTVDTSTSTVYMELSSLTSEDTAVYYCATDYGTSGYGLVYWGQGTTVTVSS
VL: DIQMTQSPSSLSASVGDRVTISCKASDRINNWLAWYQQKPGNAPRLLISGATSLETGVPSRFSGSGSGTDYTFTISSLQPEDIATYYCQQYWNIPFTFGQGTKVEIKR
notes: humanized 3C2 antibody
B2: 3C2VH4VL2 (antibody, human IgG1, kappa, N297A, V domains shown)
VH: B1 VH with T28S, Y95F
VL: B1 VL with S22T, N42K
notes: humanized 3C2 antibody
B3: 3C2VH4VL3 (antibody, human IgG1, kappa, N297A, V domains shown)
VH: B1 VH with T28S, Y95F
VL: B1 VL
notes: humanized 3C2 antibody
B4: 3C2VH2VL4 (antibody, human IgG1, kappa, N297A, V domains shown)
VH: B1 VH with K38R, R40A
VL: B1 VL with T85V
notes: humanized 3C2 antibody
B5: 3C2VH5VL2 (antibody, human IgG1, kappa, N297A, V domains shown)
VH: B1 VH with T28S, R67K, V68A, Y95F
VL: B1 VL with S22T, N42K
notes: humanized 3C2 antibody
B6: 3C2VH2VL2 (antibody, human IgG1, kappa, N297A, V domains shown)
VH: B1 VH with K38R, R40A
VL: B1 VL with S22T, N42K
notes: humanized 3C2 antibody
B7: 3C2VH5VL3 (antibody, human IgG1, kappa, N297A, V domains shown)
VH: B1 VH with T28S, R67K, V68A, Y95F
VL: B1 VL
notes: humanized 3C2 antibody
B8: 3C2VH2VL3 (antibody, human IgG1, kappa, N297A, V domains shown)
VH: B1 VH with K38R, R40A
VL: B1 VL
notes: humanized 3C2 antibody
B9: 3C2VH5VL4 (antibody, human IgG1, kappa, N297A, V domains shown)
VH: B1 VH with T28S, R67K, V68A, Y95F
VL: B1 VL with T85V
notes: humanized 3C2 antibody
B10: 3C2VH3VL2 (antibody, human IgG1, kappa, N297A, V domains shown)
VH: B1 VH
VL: B1 VL with S22T, N42K
notes: humanized 3C2 antibody
B11: 3C2VH3VL4 (antibody, human IgG1, kappa, N297A, V domains shown)
VH: B1 VH
VL: B1 VL with T85V
notes: humanized 3C2 antibody
B12: humanized antibody 3C2-VH4VL4 (antibody, human IgG1, kappa, N297A, V domains shown)
VH: B1 VH with T28S, Y95F
VL: B1 VL with T85V
notes: Human IgG1(N297A)/kappa
B13: humanized antibody 3C2-VH6VL5 (antibody, human IgG1, kappa, N297A, V domains shown)
VH: B1 VH with K38R, R40A, L70M, T87R
VL: B1 VL with S22T, N42K, R45K, Y71F, F73L
notes: Human IgG1(N297A)/kappa
B14: humanized antibody 56E5-VH5VL4 (antibody, human IgG1, kappa, N297A, V domains shown)
VH: QVQLQESGPGLVKPSQTLSLTCTVSGGSITSDYWNWIRQHPGNKLEYMGYISYTGSTYYNPSLKSRISITRDTSKNQFSLKLSSVTTADTAVYYCARYRDWDVRAMDYWGQGTTVTVSS
VL: DIVMTQSPDSLAVSLGEKVTMNCKSSQSLLISGNQKNFLTWYQQKPGQPPKLLIYWASTRESGVPDRFSGSGSGTDFTLTISSLQAEDLAVYYCQNDFGFPFTFGQGTKVEIKR
notes: Human IgG1(N297A)/kappa
B15: 56E5VH2VL4 (antibody, human IgG1, kappa, N297A, V domains shown)
VH: B14 VH with N43K, K44G, I67V, S68T, R71V
VL: B14 VL
notes: humanized 56E5 antibody
B16: 56E5VH4VL4 (antibody, human IgG1, kappa, N297A, V domains shown)
VH: B14 VH with I67V, S68T
VL: B14 VL
notes: humanized 56E5 antibody
B17: 56E5VH3VL4 (antibody, human IgG1, kappa, N297A, V domains shown)
VH: B14 VH with I67V, S68T, R71V
VL: B14 VL
notes: humanized 56E5 antibody

Molecular target: T1, human PD-L1 expressed on HEK293A cells (human, UniProt Q9NZQ7 19-290)
T1 construct: Full-length cDNA expressed stably; also called HEK293A/human PD-L1 cells; HEK293A/human PD-L1
Experiment: FACS on HEK293A/human PD-L1 cells, serially diluted antibody (protocol of Example 4)

T1 sequence (Q9NZQ7 19-290 limits assumed): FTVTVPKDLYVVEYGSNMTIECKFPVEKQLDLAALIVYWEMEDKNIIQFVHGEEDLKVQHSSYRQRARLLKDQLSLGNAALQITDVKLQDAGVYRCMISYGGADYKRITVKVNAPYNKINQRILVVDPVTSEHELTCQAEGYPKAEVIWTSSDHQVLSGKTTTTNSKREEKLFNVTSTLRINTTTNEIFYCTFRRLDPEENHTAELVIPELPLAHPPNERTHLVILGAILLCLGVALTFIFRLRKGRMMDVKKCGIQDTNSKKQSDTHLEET

binding result	Binder
binds	B1
binds	B2
binds	B3
binds	B4
binds	B5
binds	B6
binds	B7
binds	B8
binds	B9
binds	B10
binds	B11

Molecular target: T2, monkey PD-L1 (ECD)-his (monkey, UniProt Q9NZQ7 19-238 (human entry))
T2 construct: Bought protein; also called Cat #:90251-C08H, Sino Biological; not shown: His tag
Experiment: SPR (BIAcore 8K), monkey PD-L1 (ECD)-his coupled to CM5 chip, antibody injected, 1:1 Langmuir model
Description: (§1) These antibodies were also tested in SPR assays for their binding affinities to human and monkey PD-L1 with BIAcore™ 8K instrument (GE Life Sciences). Briefly, 100-200 response units (RU) of human PD-L1 (ECD)-his protein (Cat #:10084-H08H, Sino Biological, CN) or monkey PD-L1 (ECD)-his protein (Cat #:90251-008H, Sino Biological, CN) were coupled to CM5 biosensor chips (Cat #:BR-1005-30, GE Life Sciences, US), and the un-reacted groups were blocked with 1M ethanolamine Serially diluted antibodies at concentrations ranging from 0.3 μM to 10 μM were injected into the SPR running buffer (HBS-EP buffer, pH7.4, Cat #:BR-1006-69, GE Life Sciences, US) at 30 μL/minute. The binding affinities were calculated with the RUs of blank controls subtracted. The association rate (kₐ) and dissociation rate (kd) were calculated using the one-to-one Langmuir binding model (BIA Evaluation Software, GE Life Sciences), and the equilibrium dissociation constant KD was calculated as the kd/kₐ ratio.

T2 sequence (Q9NZQ7 other isoform, or with tags, fused parts or gaps): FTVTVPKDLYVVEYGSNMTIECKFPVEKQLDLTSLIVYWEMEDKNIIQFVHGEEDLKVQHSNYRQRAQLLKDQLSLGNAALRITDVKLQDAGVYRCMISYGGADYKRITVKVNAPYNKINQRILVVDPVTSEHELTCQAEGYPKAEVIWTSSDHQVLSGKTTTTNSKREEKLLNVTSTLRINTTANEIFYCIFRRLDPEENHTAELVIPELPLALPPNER

Kd [nM]	Binder
0.245	B12
0.369	B13
0.00807	B14

Molecular target: T3, human PD-L1 (ECD)-his (human, UniProt Q9NZQ7 19-238)
T3 construct: Bought protein; it is not tied to the bought construct by a sentence of its own; also called recombinant human PD-L1(ECD)-his; Cat #:10084-H08H, Sino Biological; not shown: His tag
Experiment: SPR (BIAcore 8K), human PD-L1 (ECD)-his coupled to CM5 chip, antibody injected, 1:1 Langmuir model
Description: as §1

T3 sequence (Q9NZQ7 19-238): as the sequence (Q9NZQ7 other isoform, or with tags, fused parts or gaps) above, with T33A, S34A, N62S, Q68R, R82Q, L173F, A185T, I192T, L215H counted along it

Kd [nM]	Binder
0.307	B12
0.433	B13
0.518	B14

Molecular target: T1, human PD-L1 expressed on HEK293A cells
Experiment: FACS on cells, serially diluted antibody (protocol of Example 4); legend paragraph 38 gives panel A as HEK293A/human PD-L1 cells, but the title printed on the sheet reads HEK293A/monkey PDL1

binding result	Binder
binds	B15
binds	B16
binds	B17

Molecular target: T4, monkey PD-L1 expressed on HEK293A cells (monkey (cynomolgus), UniProt Q9NZQ7 19-290 (human entry))
T4 construct: Full-length cDNA expressed stably; also called HEK293A/monkey PD-L1 cells; HEK293A/monkey PD-L1
Experiment: FACS on HEK293A/monkey PD-L1 cells, serially diluted antibody (protocol of Example 4)

T4 sequence (Q9NZQ7 other isoform, or with tags, fused parts or gaps limits assumed): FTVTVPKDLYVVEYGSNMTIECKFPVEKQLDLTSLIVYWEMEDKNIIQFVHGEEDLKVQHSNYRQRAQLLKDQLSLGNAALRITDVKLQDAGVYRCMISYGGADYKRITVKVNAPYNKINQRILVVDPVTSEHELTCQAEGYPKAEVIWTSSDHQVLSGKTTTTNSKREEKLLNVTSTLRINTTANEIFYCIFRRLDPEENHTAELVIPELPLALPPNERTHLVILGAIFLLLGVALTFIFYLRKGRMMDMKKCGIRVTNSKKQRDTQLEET

binding result	Binder
binds	B1
binds	B2
binds	B3
binds	B12
binds	B4
binds	B13
binds	B5
binds	B6
binds	B7
binds	B8
binds	B9
binds	B10
binds	B11

Molecular target: T4, monkey PD-L1 expressed on HEK293A cells
Experiment: as above
Remark: another data set of the same source

binding result	Binder
binds	B15
binds	B16
binds	B17
binds	B14
